Assay results from US11306156.

Legend:
[1] = biological target: D3H44 light chain Q124K_V133G_S176R_T178K (Kabat), N-terminal HA or FLAG tag; assay: LCCA co-expression, competing light chain m26, L1:L2 DNA 1:3 normalized to 1:1, SPR tag read-out
[2] = biological target: D3H44 light chain Q124K_V133G_S176R_T178K (Kabat), N-terminal HA or FLAG tag; assay: LCCA co-expression, competing light chain m23, L1:L2 DNA 1:3 normalized to 1:1, SPR tag read-out
[3] = biological target: D3H44 light chain V133G_S176D_T178D_T180E (Kabat), N-terminal HA or FLAG tag; assay: LCCA co-expression, competing light chain m24, L1:L2 DNA 1:3 normalized to 1:1, SPR tag read-out
[4] = biological target: tissue factor (TF) antigen (UniProt P13726); assay: SPR (ProteOn XPR36), Fab captured on anti-penta-His surface, TF as analyte, 1:1 fit; batch C (stored about 2 months at 4 C)
[5] = biological target: tissue factor (TF) antigen (UniProt P13726); assay: SPR (ProteOn XPR36), Fab captured on anti-penta-His surface, TF as analyte; reference wild-type D3H44 Fab; batch C
[6] = biological target: tissue factor (TF) antigen (UniProt P13726); assay: SPR (ProteOn XPR36), Fab captured by His tag on anti-penta-His surface, TF injected as analyte; against wild-type D3H44 Fab; batch C (+)
[7] = biological target: tissue factor (TF) antigen (UniProt P13726); assay: SPR (ProteOn XPR36), Fab captured by His tag on anti-penta-His surface, TF injected as analyte, 1:1 fit; batch C (+)
[8] = biological target: D3H44 light chain S131K (Kabat), N-terminal HA or FLAG tag; assay: LCCA co-expression, competing light chain m37, L1:L2 DNA 1:9 normalized to 1:1, SPR tag read-out
[9] = biological target: D3H44 light chain S131K (Kabat), N-terminal HA or FLAG tag; assay: LCCA co-expression, competing light chain m37, L1:L2 DNA 1:3 normalized to 1:1, SPR tag read-out
[10] = biological target: D3H44 light chain Q124E_T180E (Kabat), N-terminal HA or FLAG tag; assay: LCCA co-expression, competing light chain m36, L1:L2 DNA 1:3 normalized to 1:1, SPR tag read-out
[11] = biological target: D3H44 light chain Q124E_T180E (Kabat), N-terminal HA or FLAG tag; assay: LCCA co-expression, competing light chain m36, L1:L2 DNA 1:9 normalized to 1:1, SPR tag read-out
[12] = biological target: D3H44 light chain S121K_V133G_N137K_S174R_S176R (Kabat), N-terminal HA or FLAG tag; assay: LCCA co-expression, competing light chain m30, L1:L2 DNA 1:3 normalized to 1:1, SPR tag read-out
[13] = biological target: tissue factor (TF) antigen (UniProt P13726); assay: SPR (ProteOn), Fab captured via anti-penta-His, TF injected, 1:1 fit; batch C (+)
[14] = biological target: tissue factor (TF) antigen (UniProt P13726); assay: SPR (ProteOn), Fab captured via anti-penta-His, TF injected, 1:1 fit; reference wild-type D3H44 Fab; batch C (+)
[15] = biological target: tissue factor (TF) antigen (UniProt P13726); assay: SPR (ProteOn XPR36), Fab captured on anti-penta His, TF injected at 0.74-60 nM, 1:1 model; median
[16] = biological target: D3H44 light chain V133G_N137K_S174R_S176R (Kabat), N-terminal HA or FLAG tag; assay: LCCA co-expression, competing light chain m30, L1:L2 DNA 1:3 normalized to 1:1, SPR tag read-out
[17] = biological target: D3H44 light chain Q124K_V133G_S176R_T178K (Kabat), N-terminal HA or FLAG tag; assay: LCCA co-expression, competing light chain m25, L1:L2 DNA 1:3 normalized to 1:1, SPR tag read-out
[18] = biological target: D3H44 light chain Q124E_V133G_S176D_T178E_T180E (Kabat), N-terminal HA or FLAG tag; assay: LCCA co-expression, competing light chain m24, L1:L2 DNA 1:3 normalized to 1:1, SPR tag read-out

## D3H44 Fab heavy chain L124E_L143E_K145T (Kabat), C-terminal ABD2-His6 tag
[1]
  H1L1:H1L2 normalized median ratio: 62 of 100
  H1L1:H1L2 normalized median scalar value ln(r1/f1): 0.43
[2]
  H1L1:H1L2 normalized median ratio: 89 of 100
  H1L1:H1L2 normalized median scalar value ln(r1/f1): 2.08
[3]
  H1L1:H1L2 normalized median ratio: 38 of 100

## D3H44 Fab heterodimer H1 S188L_V190Y / L1 V133S
[4]
  Kd: 0.1 nM
[5]
  Change in median values of KD of h1l1 Fab heterodimer compared to wild type (-(log(KD design)-log(KD wt))): 0.2

## D3H44 H1L1 Fab heterodimer of LCCA Set # 9982 (H1 S186K, L1 S131E)
[6]
  change in median KD compared to wild type, -(log(KD design)-log(KD wt)): 0.05 log
[7]
  Kd: 0.14 nM

## D3H44 Fab heavy chain K145T_Q179E (Kabat), C-terminal ABD2-His6 tag
[8]
  H1L1:H1L2 normalized median ratio: 75 of 100
  H1L1:H1L2 normalized median scalar value ln(r1/f1): 1.1
[9]
  H1L1:H1L2 normalized median ratio: 42 of 100
  H1L1:H1L2 normalized median scalar value ln(r1/f1): -0.34
[10]
  H1L1:H1L2 normalized median ratio: 58 of 100
[11]
  H1L1:H1L2 normalized median ratio: 25 of 100

## D3H44 Fab heavy chain L124E_A125S_H172T_K228D (Kabat), C-terminal ABD2-His6 tag
[12]
  H1L1:H1L2 normalized median ratio: 27 of 100
  H1L1:H1L2 normalized median scalar value ln(r1/f1): -0.97

## D3H44 Fab heterodimer (H1L1) of LCCA Sets # 9829, 9830: H1 S186K, L1 Q124E_Q160E_T178E
[13]
  Kd: 0.06 nM
[14]
  change in median KD compared to wild type, -(log(KD design)-log(KD wt)): 0.41

## D3H44 Fab heterodimer (H1L1) of LCCA Set # 9851: H1 S186K, L1 Q124E_T178E_T180E
[13]
  Kd: 0.15 nM
[14]
  change in median KD compared to wild type, -(log(KD design)-log(KD wt)): 0.02

## D3H44 Fab heterodimer H1 S186K / L1 S131E
[4]
  Kd: 0.14 nM
[5]
  Change in median values of KD of h1l1 Fab heterodimer compared to wild type (-(log(KD design)-log(KD wt))): 0.05

## D3H44 Fab heavy chain L124E_L143E_K145M (Kabat), C-terminal ABD2-His6 tag
[1]
  H1L1:H1L2 normalized median ratio: 63 of 100
  H1L1:H1L2 normalized median scalar value ln(r1/f1): 0.55
[2]
  H1L1:H1L2 normalized median ratio: 88 of 100
  H1L1:H1L2 normalized median scalar value ln(r1/f1): 1.95
[3]
  H1L1:H1L2 normalized median ratio: 37 of 100

## D3H44 H1L1 Fab heterodimer of LCCA Set # 9648 (H1 L143E_K145T_Q179E, L1 Q124K_T178R)
[6]
  change in median KD compared to wild type, -(log(KD design)-log(KD wt)): 0.05 log
[7]
  Kd: 0.14 nM

## wild-type D3H44 Fab heterodimer where the light chain contains a FLAG tag
[15]
  Kd: 0.157 nM

## D3H44 Fab heavy chain L124E_H172T (Kabat), C-terminal ABD2-His6 tag
[16]
  H1L1:H1L2 normalized median ratio: 53 of 100
  H1L1:H1L2 normalized median scalar value ln(r1/f1): 0.12

## D3H44 Fab heavy chain L124R_H172R (Kabat), C-terminal ABD2-His6 tag
[16]
  H2L2:H2L1 normalized median ratio: 8 of 100

## D3H44 Fab heavy chain L124R_A125R_H172R (Kabat), C-terminal ABD2-His6 tag
[12]
  H2L2:H2L1 normalized median ratio: 5 of 100

## D3H44 Fab heavy chain S186K (Kabat), C-terminal ABD2-His6 tag
[8]
  H2L2:H2L1 normalized median ratio: 7 of 100
[9]
  H2L2:H2L1 normalized median ratio: 2 of 100
[10]
  H2L2:H2L1 normalized median ratio: 98 of 100
[11]
  H2L2:H2L1 normalized median ratio: 93 of 100

## D3H44 Fab heavy chain L124E_L143D_K145T (Kabat), C-terminal ABD2-His6 tag
[17]
  H1L1:H1L2 normalized median ratio: 79 of 100
  H1L1:H1L2 normalized median scalar value ln(r1/f1): 1.31
[2]
  H1L1:H1L2 normalized median ratio: 81 of 100
  H1L1:H1L2 normalized median scalar value ln(r1/f1): 1.44
[18]
  H1L1:H1L2 normalized median ratio: 21 of 100

## D3H44 H1L1 Fab heterodimer of LCCA Sets # 9888 and 9887 (H1 S186R, L1 Q124E_T178E)
[6]
  change in median KD compared to wild type, -(log(KD design)-log(KD wt)): 0.06 log
[7]
  Kd: 0.14 nM

## D3H44 Fab heavy chain L124R_S186K (Kabat), C-terminal ABD2-His6 tag
[1]
  H2L2:H2L1 normalized median ratio: 7 of 100
[2]
  H2L2:H2L1 normalized median ratio: 24 of 100
[3]
  H2L2:H2L1 normalized median ratio: 93 of 100

## D3H44 Fab heterodimer (H1L1) of LCCA Sets # 9979, 9983: H1 Q179K, L1 S131E
[13]
  Kd: 0.14 nM
[14]
  change in median KD compared to wild type, -(log(KD design)-log(KD wt)): 0.05
